What was measured:
p53 (Danio rerio) = p53 (Danio rerio) (UniProt P79734); conditions: cited from earlier work
[1] = target: the molecule itself; assay: crystal structure; DRp53(302-346), two crystal forms (C222(1), 1.97 A; P2(1), 2.2 A), grown at 20 C with zinc acetate and polyethylene glycol
[2] = target: the molecule itself; assay: SEC-MALS; DRp53(302-331) at high concentrations (170 and 870 uM monomer at the peak); room temperature, 50 mM Tris pH 7.5, 150 mM NaCl, Superdex 75 10/300
[3] = target: the molecule itself; assay: SEC-MALS; DRp53(302-345) at 185, 46 and 9 uM (monomer concentration at the peak); room temperature, 50 mM Tris pH 7.5, 150 mM NaCl, Superdex 75 10/300

Q: With p53 (from UniProt P79734) as the molecule, how does the Kd (p53 (Danio rerio)) read?
A: The Kd was 3.6 nM.

B1: zebrafish p53 tetramerization domain, DRp53(302-346) (domain or fragment, zebrafish (Danio rerio), UniProt G1K2L5 302-346, looked up)
chain: EEIFTLQVRGRERYEILKKLNDSLELSDVVPASDAEKYRQKFMTK
notes: numbering on UniProt/TrEMBL entry G1K2L5 (length of 374 amino acids); Crystallised construct; same vector and cleavage here; also called full-length tetramerization domain; long variant; not shown: His6, N-terminal, cleaved; lipoyl domain of B. stearothermophilus dihydrolipoamide acetyltransferase, N-terminal, cleaved
Q: Does B1 bind [1]?
A: Result: binds

B2: zebrafish p53 tetramerization domain deletion variant lacking helix H2, DRp53(302-331) (domain or fragment, zebrafish (Danio rerio), UniProt G1K2L5 302-331, looked up)
chain: EEIFTLQVRGRERYEILKKLNDSLELSDVV
notes: numbering on UniProt/TrEMBL entry G1K2L5 (length of 374 amino acids); same vector and cleavage here; also called truncated domain; short variant; not shown: His6, N-terminal, cleaved; lipoyl domain of B. stearothermophilus dihydrolipoamide acetyltransferase, N-terminal, cleaved
Q: For B2, which “stoichiometry N” value [2] is on record?
A: The value was 4.

B3: zebrafish p53 tetramerization domain, residues 302-345, DRp53(302-345) (domain or fragment, zebrafish (Danio rerio), UniProt G1K2L5 302-345, looked up)
chain: EEIFTLQVRGRERYEILKKLNDSLELSDVVPASDAEKYRQKFMT
notes: numbering on UniProt/TrEMBL entry G1K2L5 (length of 374 amino acids); Used for SEC-MALS; the two may be the same construct; not shown: His6, N-terminal, cleaved; lipoyl domain of B. stearothermophilus dihydrolipoamide acetyltransferase, N-terminal, cleaved; GGS, N-terminal, kept
Q: For B3, which “stoichiometry N” value [3] is on record?
A: Its value is 4.

Reference: paper PMC4155161 (Structure(London, England:1993), 2014)
